Experimental findings from patent publication US20190275125A1 are described below.

Read-outs that look alike come from different tables or passages of the source.

Assay in all cases: MSD inhibition assay, abeta 1-28 coated plates
For assay [1], the target named is Biosimilar (BS) bapineuzumab.
Assay [2] deals with Biosimilar (BS) bapineuzumab. The source holds these as a separate data set.
Assay [3] deals with Biosimilar (BS) bapineuzumab. The source holds these as a separate data set.

Biosimilar (BS) bapineuzumab, sequence (chain, as listed by the source, chain 1 of 2): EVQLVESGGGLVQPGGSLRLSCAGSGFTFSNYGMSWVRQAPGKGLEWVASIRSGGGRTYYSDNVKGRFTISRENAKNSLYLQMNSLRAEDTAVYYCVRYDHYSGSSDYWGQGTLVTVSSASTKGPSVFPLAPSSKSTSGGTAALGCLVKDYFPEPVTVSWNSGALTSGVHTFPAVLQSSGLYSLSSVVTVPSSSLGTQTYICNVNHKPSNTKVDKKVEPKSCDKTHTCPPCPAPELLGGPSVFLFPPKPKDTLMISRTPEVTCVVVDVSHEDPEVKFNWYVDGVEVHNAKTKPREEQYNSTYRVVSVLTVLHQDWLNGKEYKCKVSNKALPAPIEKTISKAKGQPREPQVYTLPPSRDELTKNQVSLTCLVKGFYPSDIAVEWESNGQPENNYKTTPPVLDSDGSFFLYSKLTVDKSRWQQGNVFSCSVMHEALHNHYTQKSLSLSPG
Biosimilar (BS) bapineuzumab, sequence (chain, as listed by the source, chain 2 of 2): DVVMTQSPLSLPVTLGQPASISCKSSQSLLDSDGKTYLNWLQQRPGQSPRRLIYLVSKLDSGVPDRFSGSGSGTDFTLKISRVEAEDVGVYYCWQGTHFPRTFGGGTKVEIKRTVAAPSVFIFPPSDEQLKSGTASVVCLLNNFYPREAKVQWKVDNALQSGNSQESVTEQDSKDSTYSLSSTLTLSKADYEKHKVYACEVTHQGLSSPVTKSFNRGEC

B1: abeta 1-12 trimer construct, P05067 672-683; P05067 672-683; P05067 672-683 (peptide)
peptide: DAEFRHDSGYEVGGGGGGGGDAEFRHDSGYEVGGGGGGGGDAEFRHDSGYEV
modifications: not checked
For the molecule B1, the IC50 was 19 nM in assay [1], 10 to 40 nM in assay [2] and 10 nM in assay [3].

For orientation: IC50 means the concentration at which inhibition is half-maximal.
